Assay [1] concerns the target ErbB3 on rat Schwann cells (rat) (UniProt Q62799). Briefly: cell-based or functional assay.
For assay [2], the target named is ErbB4 on neonatal rat cardiomyocytes (rat) (UniProt Q62956). Briefly: cell-based or functional assay.

Residue numbers refer to the chain shown, from its start. Names may count otherwise. “And” between values parts separate entries of the source, which are not always exact repeats. Identical values can stand only once.

Consider eight molecules from patent publication US20220402985A1.

Sequence of ErbB4 on neonatal rat cardiomyocytes (rat) (Q62956 26-1308): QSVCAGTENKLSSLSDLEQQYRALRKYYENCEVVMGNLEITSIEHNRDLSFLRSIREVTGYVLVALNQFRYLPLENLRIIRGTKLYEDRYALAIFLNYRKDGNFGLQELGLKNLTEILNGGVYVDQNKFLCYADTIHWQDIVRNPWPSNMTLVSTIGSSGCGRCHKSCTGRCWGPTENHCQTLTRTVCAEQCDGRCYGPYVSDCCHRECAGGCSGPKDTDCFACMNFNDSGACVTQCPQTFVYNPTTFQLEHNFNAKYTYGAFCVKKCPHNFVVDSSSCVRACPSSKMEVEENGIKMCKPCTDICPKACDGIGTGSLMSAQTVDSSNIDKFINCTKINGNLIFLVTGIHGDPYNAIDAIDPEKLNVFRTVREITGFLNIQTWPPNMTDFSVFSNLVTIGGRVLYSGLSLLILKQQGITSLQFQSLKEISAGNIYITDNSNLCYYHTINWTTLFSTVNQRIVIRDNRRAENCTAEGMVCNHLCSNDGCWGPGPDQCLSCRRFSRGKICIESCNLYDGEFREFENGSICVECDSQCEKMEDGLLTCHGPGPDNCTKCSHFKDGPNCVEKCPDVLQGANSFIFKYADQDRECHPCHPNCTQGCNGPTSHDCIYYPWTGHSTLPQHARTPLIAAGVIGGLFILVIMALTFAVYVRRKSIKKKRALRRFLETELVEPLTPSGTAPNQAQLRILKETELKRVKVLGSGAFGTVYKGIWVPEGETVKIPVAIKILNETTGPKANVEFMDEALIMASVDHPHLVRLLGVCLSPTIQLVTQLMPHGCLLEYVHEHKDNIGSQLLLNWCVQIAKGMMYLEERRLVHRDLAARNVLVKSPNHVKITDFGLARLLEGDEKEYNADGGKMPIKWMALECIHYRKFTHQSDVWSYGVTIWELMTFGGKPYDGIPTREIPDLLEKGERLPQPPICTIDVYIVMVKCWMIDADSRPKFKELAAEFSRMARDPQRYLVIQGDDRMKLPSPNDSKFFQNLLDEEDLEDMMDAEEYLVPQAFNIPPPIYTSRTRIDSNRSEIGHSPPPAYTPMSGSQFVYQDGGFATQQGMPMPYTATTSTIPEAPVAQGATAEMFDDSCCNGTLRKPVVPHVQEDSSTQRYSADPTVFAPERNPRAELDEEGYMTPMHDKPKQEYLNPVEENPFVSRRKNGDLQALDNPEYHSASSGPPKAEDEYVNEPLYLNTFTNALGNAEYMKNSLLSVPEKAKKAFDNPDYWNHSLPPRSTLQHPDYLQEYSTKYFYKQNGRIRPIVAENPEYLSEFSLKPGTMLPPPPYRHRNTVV
Sequence of ErbB3 on rat Schwann cells (rat) (Q62799 20-1339): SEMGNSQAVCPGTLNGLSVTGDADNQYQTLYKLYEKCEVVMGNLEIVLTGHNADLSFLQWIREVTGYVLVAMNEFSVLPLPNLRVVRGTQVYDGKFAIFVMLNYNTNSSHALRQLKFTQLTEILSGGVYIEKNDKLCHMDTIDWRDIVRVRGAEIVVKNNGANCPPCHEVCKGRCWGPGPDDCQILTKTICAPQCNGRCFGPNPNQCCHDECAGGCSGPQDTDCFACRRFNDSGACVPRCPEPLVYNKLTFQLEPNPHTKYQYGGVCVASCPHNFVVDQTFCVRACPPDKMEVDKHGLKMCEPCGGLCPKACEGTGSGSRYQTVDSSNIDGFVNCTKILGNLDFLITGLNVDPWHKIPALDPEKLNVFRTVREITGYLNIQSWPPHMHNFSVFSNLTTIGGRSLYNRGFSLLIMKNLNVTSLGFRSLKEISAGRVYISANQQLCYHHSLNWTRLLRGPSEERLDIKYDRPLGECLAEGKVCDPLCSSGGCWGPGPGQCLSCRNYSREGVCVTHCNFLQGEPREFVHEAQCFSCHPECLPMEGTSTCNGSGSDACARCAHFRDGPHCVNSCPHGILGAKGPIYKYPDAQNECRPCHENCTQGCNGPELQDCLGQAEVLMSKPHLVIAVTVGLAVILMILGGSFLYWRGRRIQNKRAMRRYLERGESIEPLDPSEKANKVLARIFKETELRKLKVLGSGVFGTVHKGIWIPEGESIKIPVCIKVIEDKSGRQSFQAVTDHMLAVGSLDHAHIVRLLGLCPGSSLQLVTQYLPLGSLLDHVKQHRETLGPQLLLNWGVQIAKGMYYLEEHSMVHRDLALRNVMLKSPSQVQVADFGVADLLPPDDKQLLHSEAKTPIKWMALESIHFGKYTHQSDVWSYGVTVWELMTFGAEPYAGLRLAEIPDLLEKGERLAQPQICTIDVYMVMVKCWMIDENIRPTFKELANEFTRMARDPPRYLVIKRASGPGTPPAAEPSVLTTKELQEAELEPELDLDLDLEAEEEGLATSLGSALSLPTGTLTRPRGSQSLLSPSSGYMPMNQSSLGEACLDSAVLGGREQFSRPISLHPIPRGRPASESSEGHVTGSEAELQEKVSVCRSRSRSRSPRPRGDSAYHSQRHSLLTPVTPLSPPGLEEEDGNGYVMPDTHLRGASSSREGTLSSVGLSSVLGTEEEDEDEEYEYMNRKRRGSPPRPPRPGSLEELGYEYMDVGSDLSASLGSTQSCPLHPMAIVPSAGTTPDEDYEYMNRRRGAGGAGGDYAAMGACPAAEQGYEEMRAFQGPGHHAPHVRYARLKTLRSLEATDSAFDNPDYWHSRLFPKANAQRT

B1: huNRG1(S177-Q237)(_FVIEDPSI)::GG::huFcSEFL2 (Pb) (Fc fusion)
chain: SHLVKCAEKEKTFCVNGGECFVIEDPSIPSRYLCKCPNEFTGDRCQNYVMASFYKAEELYQGGDKTHTCPPCPAPELLGGPSVFLFPPKPKDTLMISRTPEVTCVVVDVSHEDPEVKFNWYVDGVEVHNAKTKPCEEQYGSTYRCVSVLTVLHQDWLNGKEYKCKVSNKALPAPIEKTISKAKGQPREPQVYTLPPSREEMTKNQVSLTCLVKGFYPSDIAVEWESNGQPENNYKTTPPVLDSDGSFFLYSKLTVDKSRWQQGNVFSCSVMHEALHNHYTQKSLSLSPGK
B1 returned a Schwann cells (SC) (ErbB3) Avg EC50 in assay [1] of 4.27 nM. Besides, in assay [2], the Cardiomyocyte (CM) (ErbB4) Avg EC50 amounted to 0.177 nM and the Selectivity SC/CM was 24.

B2: huNRG1(S177-Q237)(wt)::GG::huFcSEFL2 (Pb) (Fc fusion)
chain: B1 chain with V22M, I23V, E24K, P26L, I28N
Consider B2, for which, in assay [1], the Schwann cells (SC) (ErbB3) Avg EC50 is 0.112 nM and 0.15 nM. Further, in assay [2], the Cardiomyocyte (CM) (ErbB4) Avg EC50 is 0.275 nM and 0.6 nM; the Selectivity SC/CM is 0.4 and 0.3.

B3: huNRG1(S177-F229)(NRGE1C)::1KmodT482V, M493L)::huFcSEFL2 (Pb) (Fc fusion)
chain: SHLVKCGEKHKSFCVNGGECFMIEGPSNPSRYLCKCPNEFTGDRCQEDFMASFGSGSATGGSGSVASSGSGSATHLDKTHTCPPCPAPELLGGPSVFLFPPKPKDTLMISRTPEVTCVVVDVSHEDPEVKFNWYVDGVEVHNAKTKPCEEQYGSTYRCVSVLTVLHQDWLNGKEYKCKVSNKALPAPIEKTISKAKGQPREPQVYTLPPSREEMTKNQVSLTCLVKGFYPSDIAVEWESNGQPENNYKTTPPVLDSDGSFFLYSKLTVDKSRWQQGNVFSCSVMHEALHNHYTQKSLSLSPGK
B3: in assay [1], the Schwann cells (SC) (ErbB3) Avg EC50 is > 10000 nM. Further, in assay [2], the CM % Agonism AVG worked out at 75.8%, the Cardiomyocyte (CM) (ErbB4) Avg EC50 turned out to be 0.4 nM and the Selectivity SC/CM was > 10000.

B4: huNRG1(S177-Q237)(3H8)::GG::huFcSEFL2 (Pb) (Fc fusion)
chain: SHLVKCGEKHKSFCVNGGECYMVEGSSIPSRYLCKCPNEFTGDRCQEDFMASFYKAEELYQGGDKTHTCPPCPAPELLGGPSVFLFPPKPKDTLMISRTPEVTCVVVDVSHEDPEVKFNWYVDGVEVHNAKTKPCEEQYGSTYRCVSVLTVLHQDWLNGKEYKCKVSNKALPAPIEKTISKAKGQPREPQVYTLPPSREEMTKNQVSLTCLVKGFYPSDIAVEWESNGQPENNYKTTPPVLDSDGSFFLYSKLTVDKSRWQQGNVFSCSVMHEALHNHYTQKSLSLSPGK
B4: the Schwann cells (SC) (ErbB3) Avg EC50 in assay [1] is > 10000 nM. Also, in assay [2], the Cardiomyocyte (CM) (ErbB4) Avg EC50 amounted to 0.276 nM and the Selectivity SC/CM was > 10000.

B5: huNRG1(S177-Q237)(_200E)::GG::huFcSEFL2 (Pb) (Fc fusion)
chain: B1 chain with V22M, I23V, P26L, I28N
Molecule B5 came in with a Schwann cells (SC) (ErbB3) Avg EC50 in assay [1] of 4.82 nM. For the same molecule, in assay [2], the Cardiomyocyte (CM) (ErbB4) Avg EC50 is 0.452 nM and the Selectivity SC/CM worked out at 11.

B6: huNRG1(S177-Q237)()200E_KDF)::GG::huFcSEFL2 (Pb) (Fc fusion)
chain: B1 chain with V22M, I23V, P26L, I28N, N47K, Y48D, V49F
Molecule B6 yielded a Schwann cells (SC) (ErbB3) Avg EC50 in assay [1] of 121 nM. Moreover, in assay [2], the Cardiomyocyte (CM) (ErbB4) Avg EC50 turned out to be 2 nM and the Selectivity SC/CM was 60.

B7: huNRG1(S177-Q237)(v80)::GG::huFcSEFL2 (Pb) (Fc fusion)
chain: B1 chain with K9S, E10H, T12S, D25G, P26S, N47K, Y48D
On to B7, for which the Schwann cells (SC) (ErbB3) Avg EC50 in assay [1] turned out to be 6.65 nM. For the same molecule, in assay [2], the Cardiomyocyte (CM) (ErbB4) Avg EC50 was determined as 0.998 nM and the Selectivity SC/CM came out at 7.

B8: huNRG1(S177-Q237)(v80.3)::GG::huFcSEFL2 (Pb) (Fc fusion)
chain: B1 chain with K9R, E10H, T12S, D25G, P26S, Q46E, N47K, Y48D
In assay [1], B8 came in with a Schwann cells (SC) (ErbB3) Avg EC50 of 3000 nM. In assay [2], this molecule came in with a Cardiomyocyte (CM) (ErbB4) Avg EC50 of 33.6 nM and a Selectivity SC/CM of 89.
